# Where a chain is given by its changes, count along the chain named.
# T1: His-tagged human TNFR1 (Human TNFR1/CD120a/TNFRSF1A Protein, His Tag, Acrobiosystems Cat #: TN1-5222) (human, UniProt P19438 30-211)
# T1 construct: Bought protein; also called hTNFR1-His; hTNFR 1-His; not shown: His tag
# T1 sequence (looked up): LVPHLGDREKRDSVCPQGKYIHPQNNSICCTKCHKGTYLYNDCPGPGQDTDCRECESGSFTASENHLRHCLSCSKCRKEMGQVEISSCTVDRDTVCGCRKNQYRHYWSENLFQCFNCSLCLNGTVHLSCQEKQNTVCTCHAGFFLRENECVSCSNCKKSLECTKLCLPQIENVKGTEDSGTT
# T2: ΔCRD4-TNFR2 protein (with CRD4 deletion), on CHO-S cells (human, UniProt P20333 23-461)
# T2 construct: also called CHO-SΔCRD4-TNFR2; TNFR2 lacking CRD4
# T2 sequence: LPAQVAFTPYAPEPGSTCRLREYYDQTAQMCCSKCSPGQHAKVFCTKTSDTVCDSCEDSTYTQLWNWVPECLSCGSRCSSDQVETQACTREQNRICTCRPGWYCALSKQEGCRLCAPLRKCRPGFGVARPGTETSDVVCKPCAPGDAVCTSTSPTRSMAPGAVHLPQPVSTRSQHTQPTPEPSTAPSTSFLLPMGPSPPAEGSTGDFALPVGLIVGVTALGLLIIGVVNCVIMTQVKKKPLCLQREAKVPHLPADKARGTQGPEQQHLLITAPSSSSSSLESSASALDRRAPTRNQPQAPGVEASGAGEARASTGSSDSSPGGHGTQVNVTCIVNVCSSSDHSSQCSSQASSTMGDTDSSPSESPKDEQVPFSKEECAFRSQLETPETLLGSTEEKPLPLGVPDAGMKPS
# T3: His-tagged monkey (Crab-eating monkey) TNFR2 (Sino Biological, Cat #: 90102-C08H) (monkey (Crab-eating monkey), UniProt P20333 27-257 (human entry))
# T3 construct: Bought protein; also called fTNFR2-His; not shown: His tag
# T3 chain: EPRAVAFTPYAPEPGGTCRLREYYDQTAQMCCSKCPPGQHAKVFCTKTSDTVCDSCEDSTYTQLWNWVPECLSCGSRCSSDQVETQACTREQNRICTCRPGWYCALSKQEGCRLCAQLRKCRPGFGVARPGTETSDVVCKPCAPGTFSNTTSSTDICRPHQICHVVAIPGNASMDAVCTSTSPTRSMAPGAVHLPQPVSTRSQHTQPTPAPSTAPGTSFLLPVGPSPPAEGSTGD
# T4: human TNFR2 (expressed on cells) (human, UniProt P20333 23-461)
# T4 construct: also called hTNFR2; human TNF Receptor 2
# T4 sequence: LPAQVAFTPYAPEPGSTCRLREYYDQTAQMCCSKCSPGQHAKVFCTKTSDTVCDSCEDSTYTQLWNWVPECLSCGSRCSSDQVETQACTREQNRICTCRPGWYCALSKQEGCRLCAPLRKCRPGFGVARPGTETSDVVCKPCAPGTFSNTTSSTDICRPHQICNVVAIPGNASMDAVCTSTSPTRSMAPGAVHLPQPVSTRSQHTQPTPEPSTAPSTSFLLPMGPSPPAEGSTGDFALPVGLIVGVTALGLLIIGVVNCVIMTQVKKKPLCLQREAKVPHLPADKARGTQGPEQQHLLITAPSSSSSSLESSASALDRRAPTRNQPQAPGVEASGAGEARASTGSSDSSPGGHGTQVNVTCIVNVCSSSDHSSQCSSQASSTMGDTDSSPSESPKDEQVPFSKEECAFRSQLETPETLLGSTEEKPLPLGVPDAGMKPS
# B1: BC-1B6-IgG1 (antibody, V domains shown)
# VH: QVQLVESGGGVVQPGRSLRLSCAASGFTFSNFGMHWVRQAPGKGLEWVAVIWYEGSDKYYADSVKGRFTISRDNSKNTLYLQMNSLRAEDTAVYYCARDSSWGFLLYGMDVWGQGTTVTVSS
# VL: DVVMTQSPLSLPVTLGQPASISCRSSRSLEYSDGNTYLNWFQQRPGQSPRRLIYKVSNRDSGVPDRFSGSGSGTAFTLKISGVEAEDVGVYYCMQGTHWPPTFGGGTKVEIK
# notes: Human VH/VL joined to the human IgG1 subtype
# B2: BC-1C3-IgG1 (antibody, V domains shown)
# VH: QVQLVESGGGVVHPGKSLRLSCAASGFTFNIYGMHWVRQAPGKGLEWVALISYDGNDKYFADSVKGRFTISRDNSKNTLYLQMNSLRAEDTAVYYCAKAVDTAVVTFFDYWGQGTLVTVSS
# VL: EIVMTQSPVTLSVSPGERATLSCRASQSVSSNLAWYQQKPGQAPRLLIYSASTRATGIPARFSGSGSGTEFTLTISSLQSEDLAVYYCQQYSNWPFTFGPGTKVDIK
# notes: as for B1
# B3: BC-1F10-IgG1 (antibody, V domains shown)
# VH: QVQLQQWGAGLLKPSETLSLICAVYDGSFSGDYWSWIRQPPGKGLEWIGEINHSGSTNYNPSLKSRVTISVDTSKNQFSLKLSSVTAADTAVYYCARGHWNYDYYYGMDVWGQGTTVTVSS
# VL: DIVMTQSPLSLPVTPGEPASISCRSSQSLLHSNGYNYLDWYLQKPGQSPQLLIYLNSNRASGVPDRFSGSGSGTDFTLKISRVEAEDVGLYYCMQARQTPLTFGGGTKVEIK
# notes: as for B1
# B4: BC-1A8-IgG1 (antibody, V domains shown)
# VH: QVQLQQSGPGLVKPSQTLSLTCAISGDSVSSNSAAWNWIRQSPSRGLEWLGRTYYRSKWYNDYALSVKSRITINPETSKNQFSLQLNSVTPEDTAVYYCAREDGVGGTKDYFDYWGQGTLVTVSS
# VL: DIQMTQSPSSLSASVGDRVTITCQASQDIDNYLNWYQQKPGKAPKLLIYDVSNLEIGVPSRFSGSGSGTDFTFTISSLQPEDIATYYCQQYDNLPLTFGQGTRLEIK
# notes: Fully human VH/VL joined to the human IgG1 subtype, kappa light chain (RenMab mice)
# B5: BC-1F4-IgG1 (antibody, V domains shown)
# VH: B4 VH with N32D, A34S, A64T, L65V, E76D
# VL: B4 VL with D30S, V51A, I56T, S76N, I83F, Y87F, L96I
# notes: as for B1
# Target: T1, His-tagged human TNFR1 (Human …)
# Assay: SPR Biacore 8K, antibody captured on Protein A chip
# Method: The binding affinity of the anti-TNFR2 antibodies to human TNFR2 and TNFR1 (Tumor necrosis factor receptor 1) were measured using surface plasmon resonance (SPR) using Biacore (Biacore, INC, Piscataway NJ) 8K biosensor equipped with pre-immobilized Protein A sensor chips.
# (§1) Purified anti-TNFR2 antibodies were diluted to 1 μg/mL and then injected into the Biacore 8K biosensor at 10 μL/min for about 50 seconds to achieve a desired protein density (e.g., about 50 response units (RU)). […] Dissociation was monitored for 600 seconds. The chip was regenerated after the last injection of each titration with Glycine (pH 2.0, 30 μL/min for 30 seconds).
row,Binder,binding result
1,B1,no binding (tested: up to 200 nM analyte)
2,B2,no binding (tested: up to 200 nM analyte)
3,B3,no binding (tested: up to 200 nM analyte)
4,B4,no binding (tested: up to 200 nM analyte)
5,B5,no binding (tested: up to 200 nM analyte)

# Target: T2, ΔCRD4-TNFR2 protein (with CRD4 …)
# Assay: FACS on CHO-S cells with ΔCRD4-TNFR2, AF647 anti-human IgG Fc secondary
# From the text: TNFR2 has four cysteine rich domains (CRD). In another experiment, FACS was used to detect the binding of anti-hTNFR2 antibodies to TNFR2 proteins with different structural domains. Secondary antibody (Alexa Fluor® 647 AffiniPure F(ab′) 2 Fragment Goat Anti-Human IgG, Fcγ fragment specific, Jackson ImmunoResearch Laboratories, Inc., Cat #: 151524) was used. The fluorescence-labeled secondary antibody can attach to the Fc region of the anti-hTNFR2 antibodies so that the anti-hTNFR2 antibodies that are bound to the ΔCRD cells can be detected by FACS. Specifically, ΔCRD1-TNFR2 protein (with CRD1 deleteion), ΔCRD2-TNFR2 protein (with CRD2 deleteion), ΔCRD3-TNFR2 protein (with CRD3 deleteion) or ΔCRD4-TNFR2 protein (with CRD4 deleteion) were expressed in CHO-S cells respectively, and then the binding between the cells and different anti-hTNFR2 antibodies was detected.
row,positive rate of binding (% of cells) [%],Binder
1,1.85,B2
2,38.3,B3
3,29.4,B4
4,21.3,B5

# Target: T3, His-tagged monkey (Crab-eating monkey) …
# Assay: SPR Biacore 8K, antibody captured on Protein A chip, fTNFR2-His as analyte
# Method: as §1
# Similar to the aforementioned binding affinity experiment, the binding affinities of the anti-TNFR2 antibodies BC-1B6-IgG1, BC-1C3-IgG1 and BC-1F4-IgG1 to His-tagged monkey (Crab-eating monkey) TNFR2 (fTNFR2-His, Sino Biological, Cat #: 90102-C08H) were measured.
Kd [nM],koff [s⁻¹],kon [M⁻¹ s⁻¹],Binder
17.5,0.00547,313000,B1
118,0.0221,187000,B2
20.1,0.0109,541000,B5

# Target: T4, human TNFR2 (expressed on cells)
# Assay: flow cytometry competition, CHO cells with human TNFR2, antibody 10 µg/mL, Biotin-hTNFα 0.5 µg/mL
# Method: 30 μl of Biotin-hTNFα (Acro Biosystems, Cat #: TNA-H82E1) was added to each well (with a final concentration of 0.5 μg/mL in each well). The cells with Biotin-hTNFα and the antibodies were incubated at 4° C. for 30 minutes.
# The signals for AF647 and PE were determined by flow cytometry (Thermo Attune NX).
row,percentage of tested cells that had Streptavidin signals [%],Binder
1,75.1,B1
2,71.1,B2
3,51.9,B3
4,12,B4
5,18.5,B5

# Source: patent US20250019454A1 (BIOCYTOGEN PHARMACEUTICALS BEIJING, published 2025)
